According to patent publication US7772181B2, “Personal care compositions comprising modified variant Bowman Birk Protease Inhibitors” (Danisco US Inc., priority 2008, dated 2010):
Marks after values point to notes of the source that are not given here.

T1: bovine pancreatic trypsin (Bos taurus, UniProt P00760)
T1 construct: purchased Worthington (Worthington Biochemical Corp.)
T1 sequence (P00760 24-246): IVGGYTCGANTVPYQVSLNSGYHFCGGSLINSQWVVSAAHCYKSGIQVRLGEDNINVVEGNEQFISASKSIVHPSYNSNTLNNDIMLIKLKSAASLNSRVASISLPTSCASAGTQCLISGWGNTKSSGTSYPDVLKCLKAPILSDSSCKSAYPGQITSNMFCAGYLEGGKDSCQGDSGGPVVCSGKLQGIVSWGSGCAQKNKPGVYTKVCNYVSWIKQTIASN


The molecules below were run against T1, bovine pancreatic trypsin (assay: BBIt-AV:BCE activity ratio, microtiter plate screens (primary, quadruplicate secondary)). Conditions: after activation with reducing agent (2-mercaptoethanol).
Assay type: biochemical
Protocol: The cultures in each master plate were thawed and a pin replicator was used to inoculate a new sterile microtiter plate containing 150 μl of Luria broth with 5 μg/ml chloramphenicol in each well. The plates were grown for ˜10 hrs in a humidified and aerated box as described above. For controls, the cultures in two wells were replaced with BBI and BBI-AV cultures that had been grown concurrently in 15 ml culture tubes (5 ml of Luria broth with 5 μg/ml chloramphenicol). After the cultures were grown, the plate was used to inoculate two duplicate 96-well filter plates (Millipore, MSGV2210) containing 150 μl of MBD medium (Vogtentanz et al., 2007) with 5 μg/ml chloramphenicol in each well by using a pin replicator. The duplicate plates were grown for ˜14 hours (as above, with plastic spacers placed between the stacked plates to allow for efficient air flow around the plates) and then 2-mecaptoethanol was added to each well in one of the plates to a final concentration of 2 mM. The plates were then grown for an additional ˜46 hours. The 96-well filter plates containing the culture broth (with or without added 2-mecaptoethanol) were then assayed for BBI and BCE activity.
Libraries were analyzed using dilutions of cultures grown in 96-well plates. Typically, the culture broth from each well was diluted (200 fold) in Assay Buffer (100 mM Tris pH 8.6, 0.005% Tween 80) and transferred to a second microtiter plate (CoStar 9017, Corning, Inc., Corning, N.Y.). Then, 20 μl of the diluted samples were transferred to a third microtiter plate. A standard curve was created by adding 20, 10, 5 or 2.5 μl of the diluted sBBI (SEQ ID NO:13) control culture to empty wells. Then, 80 μL of 50 ng/ml trypsin (bovine pancreatic trypsin, Worthington Biochemical Corp., Lakewood, N.J.) (prepared from a 1 mg/mL stock solution diluted into Assay Buffer) was added to each well of the plate. The reactions were mixed and incubated 15 min at room temperature. After the incubation, 100 μL of 0.5 mg/ml trypsin substrate (succinyl-Ala-Ala-Pro-Arg-para-nitroanilide, Bachem Bioscience, Inc., King of Prussia, Pa.), diluted in Assay Buffer from a 100 mg/ml solution in DMSO, was added to each well, mixed, and the absorbance at 405 nm was monitored for 15 min, with 1 time point recorded every 12 sec using a Spectra Max 250 (Molecular Devices). The data points were used to determine the rate for each reaction. The standard curve was generated by plotting the reaction rate versus the BBI volume and was fitted to a four-parameter equation. All data fitting was done using software supplied by the manufacturer (Molecular Devices Corp., Sunnyvale, Calif.). The activity of each BBIt-AV variant was calculated from the standard curve. Thus, the activities of all modified variant proteins were determined relative to the activity in the sBBI control (BBI-WT) culture.
The concentration of BCE was determined by an activity assay using purified BCE as a standard as described above and by (Vogtentanz et al. 2007). For the analysis of libraries grown in 96-well microtiter plates, 20 μl of culture broth were transferred to each well of a new microtiter plate. A standard curve was created by adding 20, 10, 5 or 2.5 μl of the diluted BBI-WT control culture to these empty wells. Then, 180 μl of the BCE substrate (0.25 μg/ml in Assay Buffer), 4-nitrophenyl β-D-cellobioside (Sigma, St. Louis, Mo.), was added to the plate. The plate was mixed and the absorbance at 405 nm monitored for 15 min, with 1 time point recorded every 12 s using a Spectra Max 250 (Molecular Devices Corp., Sunnyvale, Calif.). The data points were used to determine the rate for each reaction. The standard curve was generated by plotting rate versus culture volume and was fit to a quadratic curve. The BCE concentration in each variant culture was determined relative to the standard control culture. […]

Row | BBIt-AV:BCE activity ratio relative to unmodified BBIt-AV | Molecule
1 | three-fold greater | BBIt-AV-F50T: BBIt-AV (SEQ ID NO:187) with single substitution F50T (protein, synthetic BBIt-AV sequence) DDESSKPCCDQCACTKSNPPQCRCSDMRLNSCHSACKSCACYNLYGWTCTCVDITDFCYEPCKPSE
2 | best BBIt-AV:BCE-activity ratio | F50R: BBIt-AV (SEQ ID NO:187) with single substitution F50R (protein, synthetic BBIt-AV sequence) DDESSKPCCDQCACTKSNPPQCRCSDMRLNSCHSACKSCACYNLYGWTCRCVDITDFCYEPCKPSE

Same assay, conditions: prior to activation

Row | Molecule | initial BBIt-AV:BCE activity ratio relative to unmodified BBIt-AV
3 | BBIt-AV-F50T: BBIt-AV (SEQ ID NO:187) with single substitution F50T (protein, synthetic BBIt-AV sequence) DDESSKPCCDQCACTKSNPPQCRCSDMRLNSCHSACKSCACYNLYGWTCTCVDITDFCYEPCKPSE | comparable to that of the unmodified BBIt-AV parent

Same assay, conditions: single substitution in BBIt-AV, in the presence of reducing agent

Row | Molecule | relative activity of the amino acid substitution (BBI:BCE activity ratio vs BBIt-AV), amino acid present in BBIsb3-AV | relative activity of the amino acid substitution (BBI:BCE activity ratio vs BBIt-AV), amino acid present in BBItc-AV | relative activity of the amino acid substitution (BBI:BCE activity ratio vs BBIt-AV), amino acid present in BBIdb-AV
4 | M27I: BBIt-AV (SEQ ID NO:187) with single substitution M27I (protein, synthetic BBIt-AV sequence) DDESSKPCCDQCACTKSNPPQCRCSDIRLNSCHSACKSCACYNLYGWTCFCVDITDFCYEPCKPSE | I (+/−) | I (+/−) | –
5 | M27V: BBIt-AV (SEQ ID NO:187) with single substitution M27V (protein, synthetic BBIt-AV sequence) DDESSKPCCDQCACTKSNPPQCRCSDVRLNSCHSACKSCACYNLYGWTCFCVDITDFCYEPCKPSE | – | – | V (+/−)
6 | S25T: BBIt-AV (SEQ ID NO:187) with single substitution S25T (protein, synthetic BBIt-AV sequence) DDESSKPCCDQCACTKSNPPQCRCTDMRLNSCHSACKSCACYNLYGWTCFCVDITDFCYEPCKPSE | – | – | T (+/−)
7 | R23S: BBIt-AV (SEQ ID NO:187) with single substitution R23S (protein, synthetic BBIt-AV sequence) DDESSKPCCDQCACTKSNPPQCSCSDMRLNSCHSACKSCACYNLYGWTCFCVDITDFCYEPCKPSE | S (−−−) (the greater the number of “−”, the greater the difference.) | – | –
8 | A35D: BBIt-AV (SEQ ID NO:187) with single substitution A35D (protein, synthetic BBIt-AV sequence) DDESSKPCCDQCACTKSNPPQCRCSDMRLNSCHSDCKSCACYNLYGWTCFCVDITDFCYEPCKPSE | D (+/−) | – | –
9 | K37E: BBIt-AV (SEQ ID NO:187) with single substitution K37E (protein, synthetic BBIt-AV sequence) DDESSKPCCDQCACTKSNPPQCRCSDMRLNSCHSACESCACYNLYGWTCFCVDITDFCYEPCKPSE | – | E (+/−) | –
10 | N18M: BBIt-AV (SEQ ID NO:187) with single substitution N18M (protein, synthetic BBIt-AV sequence) DDESSKPCCDQCACTKSMPPQCRCSDMRLNSCHSACKSCACYNLYGWTCFCVDITDFCYEPCKPSE | M (+/−) | – | –
11 | Q11R: BBIt-AV (SEQ ID NO:187) with single substitution Q11R (protein, synthetic BBIt-AV sequence) DDESSKPCCDRCACTKSNPPQCRCSDMRLNSCHSACKSCACYNLYGWTCFCVDITDFCYEPCKPSE | – | R (+/−) | –
12 | S25A: BBIt-AV (SEQ ID NO:187) with single substitution S25A (protein, synthetic BBIt-AV sequence) DDESSKPCCDQCACTKSNPPQCRCADMRLNSCHSACKSCACYNLYGWTCFCVDITDFCYEPCKPSE | – | A (+) | –
13 | F50R: BBIt-AV (SEQ ID NO:187) with single substitution F50R (protein, synthetic BBIt-AV sequence) DDESSKPCCDQCACTKSNPPQCRCSDMRLNSCHSACKSCACYNLYGWTCRCVDITDFCYEPCKPSE | R (++) (the greater the number of “+”, the greater the difference.) | R (++) (the greater the number of “+”, the greater the difference.) | –
14 | Q11L: BBIt-AV (SEQ ID NO:187) with single substitution Q11L (protein, synthetic BBIt-AV sequence) DDESSKPCCDLCACTKSNPPQCRCSDMRLNSCHSACKSCACYNLYGWTCFCVDITDFCYEPCKPSE | L (+/−)** | – | –
15 | A13M: BBIt-AV (SEQ ID NO:187) with single substitution A13M (protein, synthetic BBIt-AV sequence) DDESSKPCCDQCMCTKSNPPQCRCSDMRLNSCHSACKSCACYNLYGWTCFCVDITDFCYEPCKPSE | M (+)*** | – | –
16 | S25E: BBIt-AV (SEQ ID NO:187) with single substitution S25E (protein, synthetic BBIt-AV sequence) DDESSKPCCDQCACTKSNPPQCRCEDMRLNSCHSACKSCACYNLYGWTCFCVDITDFCYEPCKPSE | E (−−−) (the greater the number of “−”, the greater the difference.) | – | –
17 | R23H: BBIt-AV (SEQ ID NO:187) with single substitution R23H (protein, synthetic BBIt-AV sequence) DDESSKPCCDQCACTKSNPPQCHCSDMRLNSCHSACKSCACYNLYGWTCFCVDITDFCYEPCKPSE | – | H (−) | –
18 | N18I: BBIt-AV (SEQ ID NO:187) with single substitution N18I (protein, synthetic BBIt-AV sequence) DDESSKPCCDQCACTKSIPPQCRCSDMRLNSCHSACKSCACYNLYGWTCFCVDITDFCYEPCKPSE | – | I (+++) (the greater the number of “+”, the greater the difference.) | I (+++) (the greater the number of “+”, the greater the difference.)
